Data from patent US20250122539A1, “LARGE SCALE PRODUCTION OF DIVARIN, DIVARINIC ACID AND OTHER ALKYL RESORCINOLS BY FERMENTATION” (priority 2021, published 2025).

What was measured:
[1] = Partitioning of olivetolic acid between organic overlay and aqueous culture phase (shake flask, HPLC); assay type: physicochemical; details: YP + 2% galactose culture
Procedure: Precultures of LSC3-2 and LSC3-18 were inoculated from YPD streak plates and grown in 30 ml of YP+2% (w/v) glucose in baffled 250 ml shake flasks for approximately 18 hours overnight at 30° C. with 200 rpm shaking. Baffled 250 ml shake flasks containing 30 mL of YP+2% (w/v) galactose, 5 mL of IPM or diethyl sebacate, and 0.04% (w/v) hexanoic acid, were inoculated with 1 mL of preculture and grown for at 30° C. with 200 rpm shaking. After 24 and 48 hours, samples of cell culture broth plus overlay were sampled into microcentrifuge tubes and stored at −20° C. at least overnight. Sample tubes were thawed and aqueous sample and overlay sample were pipetted into plates for HPLC analysis. Overlay samples were diluted 1:1 v/v with methanol in the HPLC plate prior to analysis.
Total olivetol equivalents are defined as the concentration of olivetol in mg/L, plus the concentration of olivetolic acid in mg/L multiplied by the ratio of the molecular weight of olivetol to olivetolic acid.

[2] = Partitioning of divarinic acid and divarin into organic solvent overlays (96 well deepwell plate, HPLC); assay type: physicochemical; details: compared with olivetolic acid and olivetol
Procedure: Several monoester and one diester overlay candidate were compared to IPM for production of divarinic acid and divarin. LSC3-13 precultures were inoculated from YPD streak plates and grown in 300 μL Delft medium+0.79 g/L complete supplement mixture (CSM) (ForMedium, Norfolk, UK)+2% (w/v) glucose in round-bottom square well 96 well deepwell plates for approximately 18 hours overnight at 30° C. with 950 rpm shaking in an Infors plate shaker. 96 well deepwell plate wells containing 300 μL of Delft medium+CSM+2% (w/v) glucose, 60 μL of different overlay solvents, and 0.08% (w/v) butyric acid, were inoculated with 10 μL of preculture and grown for 30° C. with 950 rpm shaking. After 48 hours, the aqueous layer and overlay were sampled on a Bravo automated liquid handling platform (Agilent) and samples from the aqueous and organic overlay phases were subjected to HPLC analysis to measure divarinic acid and divarin production.

[3] = test system: hexanoic acid; test: Two plasmid screening system for relative AAE activity, hexanoic acid feeding; assay type: cell-based, Saccharomyces cerevisiae; details: average production, LSC3-297/pLOA-049 plus AAE plasmid, Delft medium pH 6.5, 3.44 mM hexanoic acid, 48 hours
Description: (§1) In order to perform in vivo screening in Saccharomyces cerevisiae for acyl activating enzyme (AAE) variants with enhanced activity and/or expression, a two plasmid screening system was employed to generate an artificial bottleneck in AAE activity. This bottleneck was generated by natural copy number variation of the two plasmids, with a multi-copy 2 micron episomal plasmid, pLOA-049, harboring an olivetol synthase homologue from C. sativa (CsTKS) fused with a T2A self-cleaving peptide (Kearsey et al., FEBS J. 287:1511-1524, 2020) to a gene encoding olivetol acid cyclase from C. sativa (CsOAC), and a lower copy centromeric plasmid with an autonomous replicating sequence (CEN/ARS) harboring different acyl activating enzymes/acyl-CoA synthetases from different organisms. Markers employed on the 2 micron plasmid were orotidine-5′-phosphate decarboxylase from S. cerevisiae (URA3) and on the CEN/ARS plasmid, the multifunctional histidine biosynthesis gene HIS4 from S. cerevisiae. The cassette architecture in the plasmids was based on integrated cassettes in production strain LSC3-2, with a pGAL1-10 bidirectional promoter driving expression of CsTKS and CsOAC from pGAL1 with a S. cerevisiae CYC1 terminator, and insulated downstream of pGAL10 by a S. cerevisiae GRE3 terminator. Likewise on the CEN/ARS plasmid, a bidirectional pGAL1-10 promoter drives expression of CsAAE1 from pGAL10 with a S. cerevisiae GRE3 terminator, and is insulated downstream of pGAL1 by a S. cerevisiae CYC1 terminator.
(§2) To screen activity of AAE variants, first a CEN/ARS containing plasmid expressing AAEs co-transformed with the 2 micron plasmid expressing CsTKS translationally fused to CsOAC via the T2A self-cleaving peptide into strain LSC3-297 using the transformation method described by Gietz and Schiestl (Nat. Protocols 2:31-34, 2007). Double plasmid transformants were selected on YNB agar with 2% (w/v) glucose and CSM minus histidine and minus uracil (CSM-His-Ura, Sunrise Science Products) and grown in a 30° C. incubator for approximately 48 hours or at room temperature for approximately 72 hours. Individual colonies were picked into wells of 96 deepwell plates containing 0.3 mL per well of Delft medium with 2% (w/v) glucose and 0.75 g/L CSM-His-Ura. Delft medium base contains (per liter solution) 7.5 g ammonium sulfate, 14.4 g potassium phosphate monobasic (added from a 1 M stock solution adjusted to pH 6.5 with sodium hydroxide), 0.5 g magnesium sulfate heptahydrate, 3.6 mL of a trace metal solution (consisting of 130 g/L citric acid monohydrate, 0.574 g/L copper (II) sulfate pentahydrate, 8.07 g/L iron (III) chloride hexahydrate, 0.5 g/L boric acid, 0.333 g/L manganese (II) chloride, 0.2 g/L sodium molybdate, and 4.67 g/L zinc sulfate heptahydrate), and 1.0 ml of a vitamin solution (0.008 g/L biotin, 1.6 g/L calcium pantothenate, 0.008 g/L folic acid, 8 g/L myo-inositol, 1.6 g/L nicotinic acid, 0.8 g/L p-aminobenzoic acid, 1.6 g/L pyridoxal hydrochloride, 0.8 g/L riboflavin, 1.6 g/L thiamine hydrochloride, adjusted to pH […] with sodium hydroxide). Plates were grown for 16-24 hours at 30° C. in a plate shaker incubator maintained at 80% relative humidity and 900 rpm shaking (3 mm diameter throw). Ten microliters of preculture was then used to inoculate wells of 96 deepwell plates containing 0.3 mL per well of Delft medium with 2% (w/v) glucose, 0.75 g/L CSM-His-Ura, either 9.08 mM butyric acid or 3.44 mM hexanoic acid, and for divarin/divarinic acid, additionally 150 mM 2-(N-morpholino) ethanesulfonic acid (MES) at pH 5.5 and with the additional modification of the 1 M potassium phosphate monobasic stock in the Delft medium base also adjusted to pH 5.5 (for olivetol/olivetolic acid production from hexanoic acid, no MES was added and potassium phosphate monobasic solution used in the Delft medium base was at pH 6.5). […]

[4] = test system: butyric acid; test: Two plasmid screening system for relative AAE activity, butyric acid feeding; assay type: cell-based, Saccharomyces cerevisiae
Description: as §1, §2

[5] = average production, LSC3-297/pLOA-049 plus AAE plasmid, Delft medium pH 5.5 with 150 mM MES, 9.08 mM butyric acid, 48 hours

CCCCCc1cc(O)cc(O)c1C(=O)O [OA, olivetolic acid]
partitioning between overlay and aqueous phase ([1]; IPM overlay): partitioned between the IPM and aqueous phases
partitioning between overlay and aqueous phase ([1]; diethyl sebacate overlay): entirely partitioned into diethyl sebacate

CCCc1cc(O)cc(O)c1 [divarin, 1,3-dihydroxy-5-propylbenzene]
partitioning into monoester overlays [2]: partition less effectively

CCCc1cc(O)cc(O)c1C(=O)O [divarinic acid, 2,4-dihydroxy-6-propylbenzoic acid]
partitioning into monoester overlays [2]: partition less effectively

B1: At4CLL6: 4-coumarate--CoA ligase-like 6 from Arabidopsis thaliana (Uniprot Q84P24), SEQ ID NO: 11 (protein, listed as Arabidopsis thaliana)
chain: MAATHLHIPPNPKTQTSHQNPPFWFSSKTGIYTSKFPSLHLPVDPNLDAVSALFSHKHHGDTALIDSLTGFSISHTELQIMVQSMAAGIYHVLGVRQGDVVSLVLPNSVYFPMIFLSLISLGAIVTTMNPSSSLGEIKKQVSECSVGLAFTSTENVEKLSSLGVSVISVSESYDFDSIRIENPKFYSIMKESFGFVPKPLIKQDDVAAIMYSSGTTGASKGVLLTHRNLIASMELFVRFEASQYEYPGSSNVYLAALPLCHIYGLSLFVMGLLSLGSTIVVMKRFDASDVVNVIERFKITHFPVVPPMLMALTKKAKGVCGEVFKSLKQVSSGAAPLSRKFIEDFLQTLPHVDLIQGYGMTESTAVGTRGFNSEKLSRYSSVGLLAPNMQAKVVDWSSGSFLPPGNRGELWIQGPGVMKGYLNNPKATQMSIVEDSWLRTGDIAYFDEDGYLFIVDRIKEIIKYKGFQIAPADLEAVLVSHPLIIDAAVTAAPNEECGEIPVAFVVRRQETTLSEEDVISYVASQVAPYRKVRKVVMVNSIPKSPTGKILRKELKRILTNSVS
Olivetol [3]: 0.86 mg/L
Olivetolic acid [3]: 0.91 mg/L
Divarin [4, 5]: 5.96 mg/L
Divarinic acid [4, 5]: 5.24 mg/L
activity as butyryl-CoA synthetases for divarin and divarinic acid production ([4]; over CsAAE1): several-fold activity improvements
